Where no end group is shown, it is not given here.
T1: Glucagon receptor (rat, UniProt P30082)
T1 chain: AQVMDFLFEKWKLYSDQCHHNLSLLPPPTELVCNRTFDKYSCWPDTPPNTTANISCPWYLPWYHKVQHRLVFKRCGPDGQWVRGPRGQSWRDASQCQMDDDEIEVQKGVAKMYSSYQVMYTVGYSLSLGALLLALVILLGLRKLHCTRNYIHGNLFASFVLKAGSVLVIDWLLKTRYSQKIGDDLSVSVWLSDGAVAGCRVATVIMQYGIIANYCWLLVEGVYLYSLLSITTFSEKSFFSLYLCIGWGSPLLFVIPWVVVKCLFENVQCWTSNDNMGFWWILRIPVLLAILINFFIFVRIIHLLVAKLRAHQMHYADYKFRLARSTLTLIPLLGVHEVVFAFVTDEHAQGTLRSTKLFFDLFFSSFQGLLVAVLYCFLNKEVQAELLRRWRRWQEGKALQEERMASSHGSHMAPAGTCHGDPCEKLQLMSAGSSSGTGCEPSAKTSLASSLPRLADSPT

T2: Glucagon receptor (rat), P30082
T2 chain: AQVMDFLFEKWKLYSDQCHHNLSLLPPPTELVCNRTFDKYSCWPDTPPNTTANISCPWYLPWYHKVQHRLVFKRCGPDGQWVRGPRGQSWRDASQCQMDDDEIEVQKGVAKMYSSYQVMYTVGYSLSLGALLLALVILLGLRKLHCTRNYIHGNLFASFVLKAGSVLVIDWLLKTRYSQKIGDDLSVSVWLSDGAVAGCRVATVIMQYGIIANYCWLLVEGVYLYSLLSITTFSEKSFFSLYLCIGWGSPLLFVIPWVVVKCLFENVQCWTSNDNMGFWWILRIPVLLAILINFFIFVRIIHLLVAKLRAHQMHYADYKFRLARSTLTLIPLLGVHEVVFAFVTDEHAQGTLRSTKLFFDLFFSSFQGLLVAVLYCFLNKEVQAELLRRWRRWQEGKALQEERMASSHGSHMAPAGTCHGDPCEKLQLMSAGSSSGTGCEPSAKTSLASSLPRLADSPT

T3: GLP-1 receptor (rat), P32301
T3 chain: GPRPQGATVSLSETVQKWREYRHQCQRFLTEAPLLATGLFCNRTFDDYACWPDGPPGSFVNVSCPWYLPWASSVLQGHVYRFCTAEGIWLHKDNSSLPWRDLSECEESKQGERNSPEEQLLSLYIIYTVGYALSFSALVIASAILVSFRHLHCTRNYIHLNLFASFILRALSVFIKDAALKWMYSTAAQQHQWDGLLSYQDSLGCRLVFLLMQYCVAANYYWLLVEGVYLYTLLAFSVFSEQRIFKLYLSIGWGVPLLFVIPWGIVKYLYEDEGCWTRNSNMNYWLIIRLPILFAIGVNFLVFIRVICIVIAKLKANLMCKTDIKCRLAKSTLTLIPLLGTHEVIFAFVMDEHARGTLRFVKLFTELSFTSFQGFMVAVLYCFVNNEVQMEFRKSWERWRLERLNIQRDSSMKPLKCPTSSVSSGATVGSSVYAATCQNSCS

T4: GLP-1 receptor (rat, UniProt P32301)
T4 chain: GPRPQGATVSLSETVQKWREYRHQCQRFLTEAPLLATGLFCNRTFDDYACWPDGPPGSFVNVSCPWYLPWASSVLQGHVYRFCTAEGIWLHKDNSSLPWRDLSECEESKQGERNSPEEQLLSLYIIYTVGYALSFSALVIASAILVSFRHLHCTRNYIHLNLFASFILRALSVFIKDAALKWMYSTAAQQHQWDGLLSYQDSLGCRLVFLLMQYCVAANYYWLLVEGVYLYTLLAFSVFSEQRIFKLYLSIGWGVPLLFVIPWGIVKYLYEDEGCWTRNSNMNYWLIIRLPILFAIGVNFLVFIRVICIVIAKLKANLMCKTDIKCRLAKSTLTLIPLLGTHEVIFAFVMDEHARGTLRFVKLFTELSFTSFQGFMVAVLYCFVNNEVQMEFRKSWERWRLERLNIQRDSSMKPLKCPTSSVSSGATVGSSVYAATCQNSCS


Columns and labels:
Assay in all cases: competition
Glucagon receptor = target: T1, Glucagon receptor
[1] = target: T2, Glucagon receptor (rat), P30082; conditions: modification not given
[2] = target: T3, GLP-1 receptor (rat), P32301; conditions: modification not given
GLP-1 receptor = target: T4, GLP-1 receptor

IC50 (Glucagon receptor)	IC50 [1]	IC50 [2]	IC50 (GLP-1 receptor)	Binder
65.5 nM	–	–	–	HSQGTFTSDYAKYLDARRAKEFIAWLVKGRC(PEG 22 kD) [G277]
–	97.5 nM	2.1 nM	–	HSQGTFTSDYARYLDAKKAKEFIAWLVKGRG [G59]
–	232 nM	10.6 nM	–	HSQGTFTSDYARYLDAAKAKEFIAWLVKGRG [G61]
–	25.6 nM	5.8 nM	–	HSQGTFTSDYAKYLDARRACEFIAWLVKGRG [G71]
–	33.6 nM	8.1 nM	–	HSQGTFTSDYARYLDARRAKEFIAWLVRGRG [G82]
–	682 nM	13.8 nM	–	HSQGTFTSDYAKYLDAAKAKEFIAWLVKGRG [G60]
–	21.7 nM	4.4 nM	–	HSQGTFTSDYAKYLDARRAKEFIAWLVCGRG [G74]
–	350 nM	109 nM	–	HSQGTFTSDYAKYLDARRAKEFIAWLVKGRK [G88]
–	59.1 nM	10.2 nM	–	HSQGTFTSDYAKYLDARRAKEFIAWLVKGCG [G76]
–	54 nM	7.7 nM	–	HSQGTFTSDYAKYLDARRAKEFIAWLVKCRG [G75]
–	11.7 nM	1.4 nM	–	HSQGTFTSDYARYLDARRAREFIAWLVKGRG [G84]
–	61.1 nM	8.9 nM	–	HSQGTFTSDYAKYLDARRAKEFIAWLVKGRC [G77]
–	154 nM	8.2 nM	–	HSQGTFTSDYAKYLDARRAKEFIAWLVKGRG [G51]
–	164 nM	6.9 nM	–	HSQGTFTSDYAKYLDAKKAKEFIAWLVKGRG [G58]
–	125 nM	6.6 nM	–	HSQGTFTSDYAAYLDARRAKEFIAWLVKGR [G56]
347 nM	–	–	56.1 nM	HSQGTFTSDYARYLDARRAREFIKWLVRGRC(PEG 22 kD) [G2185]
–	726 nM	25.4 nM	–	HSQGTFTSDYARYLDARRAREFIKWLVRGRG [G90]
–	663 nM	159 nM	–	HSQGTFTSDYARYLDARRAKEFIKWLVRGRG [G183]
–	48 nM	4.5 nM	–	HSQGTFTSDYARYLDARRAREFIKWLVRGRC [G185]
–	28.6 nM	3.2 nM	–	HSQGTFTSDYARYLDARRAREFIKWLVRGRG [G83]
–	139 nM	9.8 nM	–	HSQGTFTSDYARYLDARRAKEFIAWLVKGR [G55]
–	243 nM	0.5 nM	–	HSQGTFTSDYSKYLEGQAAKEFIAWLVKGR [G5]
–	620 nM	98.6 nM	–	HSQGTFTSDYAKYLDARRAKEFIAWLVKGR [G87]
–	69.3 nM	2.2 nM	–	HSQGTFTSDYAKYLDARRAKEFIAWLVKGR [G27]
–	178 nM	14.7 nM	–	HSQGTFTSDYAKYLDAARAKEFIAWLVKGR [G57]
–	220 nM	12.6 nM	–	HSQGTFTSDYARYLDARRAREFIKWLVRGRGK [G182]
–	16.1 nM	1.5 nM	–	HSQGTFTSDYARYLDARRAREFIAWLVRGRGK [G85]
–	6.6 nM	6 nM	–	HSQGTFTSDYSKYLDSRRAQDFVQWLVKGR [G1]
547 nM	–	–	248 nM	HSQGTFTSDYARYLDARRAREFIKWLVRGRC(PEG 43 kD) [G4185]

Source: US7399745 (dated 2008)
